Measurements reported in paper PMC8482478, “N-acetylmannosamine-6-phosphate 2-epimerase uses a novel substrate-assisted mechanism to catalyze amino sugar epimerization” (The Journal of Biological Chemistry, 2021).

Target: the molecule itself
Assay: AUC; sedimentation velocity, 0.5 mg/ml SaNanE in 20 mM Tris pH 8.0, 150 mM NaCl, 50,000 rpm, 20 °C; c(s) and c(M) models in SEDFIT

B1: N-acetylmannosamine-6-phosphate 2-epimerase (NanE) from Staphylococcus aureus, wildtype (enzyme, S. aureus USA300)
chain: MLPHGLIVSCQALPDEPLHSSFIMSKMALAAYEGGAVGIRANTKEDILAIKETVDLPVIGIVKRDYDHSDVFITATSKEVDELIESQCEVIALDATLQQRPKETLDELVSYIRTHAPNVEIMADIATVEEAKNAARLGFDYIGTTLHGYTSYTQGQLLYQNDFQFLKDVLQSVDAKVIAEGNVITPDMYKRVMDLGVHCSVVGGAITRPKEITKRFVQIMED
notes: N-acetylmannosamine-6-phosphate 2-epimerase (NanE) of S. aureus USA300; also called SaNanE; wildtype SaNanE
B1 was tested, and the “stoichiometry N” value was 2.
